The text below walks through data of article doi:10.1101/2023.08.08.549832.

Holding throughout (test): FRET or BRET
A general note: BRET reads energy transfer from a luciferase to a nearby fluorophore.

For assay [1], the target named is PTCH1-eGFP (enhanced green fluorescent protein-tagged human PTCH1) (human) (UniProt Q13635).
The target of assay [2] is PTCH2-eGFP (not stated (printed entry Q9Y6C5 is human PTCH2)) (UniProt Q9Y6C5).
Assay [3] addresses PTCH1-eGFP (enhanced green fluorescent protein-tagged human PTCH1) (human) (UniProt Q13635). The source holds these as a separate data set.

For “PTCH1-mCherry (from UniProt Q13635 1-1447) (receptor)”, the net increase in GFP signal after mCherry photobleaching in assay [1] is greater than 10%. This molecule came in with a magnitude of GFP signal change against PTCH1 homodimers in assay [2] of 50 % lower.

B1: PTCH2-mCherry (receptor)
chain: MTRSPPLRELPPSYTPPARTAAPQILAGSLKAPLWLRAYFQGLLFSLGCGIQRHCGKVLFLGLLAFGALALGLRMAIIETNLEQLWVEVGSRVSQELHYTKEKLGEEAAYTSQMLIQTARQEGENILTPEALGLHLQAALTASKVQVSLYGKSWDLNKICYKSGVPLIENGMIERMIEKLFPCVILTPLDCFWEGAKLQGGSAYLPGRPDIQWTNLDPEQLLEELGPFASLEGFRELLDKAQVGQAYVGRPCLHPDDLHCPPSAPNHHSRQAPNVAHELSGGCHGFSHKFMHWQEELLLGGMARDPQGELLRAEALQSTFLLMSPRQLYEHFRGDYQTHDIGWSEEQASTVLQAWQRRFVQLAQEALPENASQQIHAFSSTTLDDILHAFSEVSAARVVGGYLLMLAYACVTMLRWDCAQSQGSVGLAGVLLVALAVASGLGLCALLGITFNAATTQVLPFLALGIGVDDVFLLAHAFTEALPGTPLQERMGECLQRTGTSVVLTSINNMAAFLMAALVPIPALRAFSLQAAIVVGCTFVAVMLVFPAILSLDLRRRHCQRLDVLCCFSSPCSAQVIQILPQELGDGTVPVGIAHLTATVQAFTHCEASSQHVVTILPPQAHLVPPPSDPLGSELFSPGGSTRDLLGQEEETRQKAACKSLPCARWNLAHFARYQFAPLLLQSHAKAIVLVLFGALLGLSLYGATLVQDGLALTDVVPRGTKEHAFLSAQLRYFSLYEVALVTQGGFDYAHSQRALFDLHQRFSSLKAVLPPPATQAPRTWLHYYRNWLQGIQAAFDQDWASGRITRHSYRNGSEDGALAYKLLIQTGDAQEPLDFSQLTTRKLVDREGLIPPELFYMGLTVWVSSDPLGLAASQANFYPPPPEWLHDKYDTTGENLRIPPAQPLEFAQFPFLLRGLQKTADFVEAIEGARAACAEAGQAGVHAYPSGSPFLFWEQYLGLRRCFLLAVCILLVCTFLVCALLLLNPWTAGLIVLVLAMMTVELFGIMGFLGIKLSAIPVVILVASVGIGVEFTVHVALGFLTTQGSRNLRAAHALEHTFAPVTDGAISTLLGLLMLAGSHFDFIVRYFFAALTVLTLLGLLHGLVLLPVLLSILGPPPEVIQMYKESPEILSPPAPQGGGLRWGASSSLPQSFARVTTSMTVAIHPPPLPGAYIHPAPDEPPWSPAATSSGNLSSRGPGPATG
For the molecule B1, in assay [3], the magnitude of GFP signal change against PTCH1 homodimers was 50 % lower.
